In the supplement of paper PMC10065799, “High-throughput profiling of sequence recognition by tyrosine kinases and SH2 domains using bacterial peptide display” (eLife, 2023):

Key:
[1] = target: EPHB2 (UniProt P29323); assay: phosphorylation enrichment, bacterial display (enrichment ratio); higher = better substrate or ligand; peptides without Tyr show the background
[2] = system: Fer (mouse); assay: as above
[3] = target: EPHB1 (UniProt P54762); assay: as above
[4] = target: Fes (UniProt P07332); assay: as above
[5] = target: Fyn (UniProt P06241); assay: as above
[6] = target: Jak2 (UniProt O60674); assay: as above
[7] = system: AncSZ; assay: as above
[8] = target: MERTK (UniProt Q12866); assay: as above
[9] = target: FGFR3 (UniProt P22607); assay: as above
[10] = system: c-Abl (mouse); assay: as above
[11] = target: FGFR1 (UniProt P11362); assay: as above
[12] = target: Hck (UniProt P08631); assay: as above
[13] = system: c-Src; assay: as above
[14] = target: SHP2-C SH2; assay: SH2 binding enrichment of the phosphorylated peptide, bacterial display (enrichment ratio); higher = better substrate or ligand; peptides without Tyr show the background
[15] = target: c-Src SH2; assay: as above
[16] = target: Grb2 SH2 (UniProt P62993); assay: as above
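Wherever SH2 binding enrichment of the phosphorylated peptide, bacterial display is given: peptide library displayed on the E. coli surface as eCPX fusions, selected cells deep-sequenced, score is each peptide's frequency after selection divided by its frequency in the input.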
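Wherever phosphorylation enrichment, bacterial display is given: 11-residue human phosphosite peptides and single-mutation variants displayed on the E. coli surface, counted by deep sequencing, each peptide's frequency after selection divided by its frequency in the unselected input library; frequency after pTyr selection over input frequency; kinase dosed for 20-30% of maximal phosphorylation in three min.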

Hck, sequence (P08631 whole entry, looked up): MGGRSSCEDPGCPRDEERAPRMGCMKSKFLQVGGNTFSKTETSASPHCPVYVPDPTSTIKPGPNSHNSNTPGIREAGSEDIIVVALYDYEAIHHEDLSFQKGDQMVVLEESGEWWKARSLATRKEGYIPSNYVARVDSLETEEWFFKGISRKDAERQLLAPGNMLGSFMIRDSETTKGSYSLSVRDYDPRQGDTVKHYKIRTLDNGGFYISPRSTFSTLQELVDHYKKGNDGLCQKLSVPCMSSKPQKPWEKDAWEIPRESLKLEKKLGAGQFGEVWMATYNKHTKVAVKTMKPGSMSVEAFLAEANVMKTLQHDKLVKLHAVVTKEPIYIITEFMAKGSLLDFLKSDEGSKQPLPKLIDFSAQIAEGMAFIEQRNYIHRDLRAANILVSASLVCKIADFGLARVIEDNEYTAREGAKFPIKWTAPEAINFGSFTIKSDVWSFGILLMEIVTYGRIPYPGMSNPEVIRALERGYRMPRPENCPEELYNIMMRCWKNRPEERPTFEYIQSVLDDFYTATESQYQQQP
FGFR3, sequence (P22607 whole entry, looked up): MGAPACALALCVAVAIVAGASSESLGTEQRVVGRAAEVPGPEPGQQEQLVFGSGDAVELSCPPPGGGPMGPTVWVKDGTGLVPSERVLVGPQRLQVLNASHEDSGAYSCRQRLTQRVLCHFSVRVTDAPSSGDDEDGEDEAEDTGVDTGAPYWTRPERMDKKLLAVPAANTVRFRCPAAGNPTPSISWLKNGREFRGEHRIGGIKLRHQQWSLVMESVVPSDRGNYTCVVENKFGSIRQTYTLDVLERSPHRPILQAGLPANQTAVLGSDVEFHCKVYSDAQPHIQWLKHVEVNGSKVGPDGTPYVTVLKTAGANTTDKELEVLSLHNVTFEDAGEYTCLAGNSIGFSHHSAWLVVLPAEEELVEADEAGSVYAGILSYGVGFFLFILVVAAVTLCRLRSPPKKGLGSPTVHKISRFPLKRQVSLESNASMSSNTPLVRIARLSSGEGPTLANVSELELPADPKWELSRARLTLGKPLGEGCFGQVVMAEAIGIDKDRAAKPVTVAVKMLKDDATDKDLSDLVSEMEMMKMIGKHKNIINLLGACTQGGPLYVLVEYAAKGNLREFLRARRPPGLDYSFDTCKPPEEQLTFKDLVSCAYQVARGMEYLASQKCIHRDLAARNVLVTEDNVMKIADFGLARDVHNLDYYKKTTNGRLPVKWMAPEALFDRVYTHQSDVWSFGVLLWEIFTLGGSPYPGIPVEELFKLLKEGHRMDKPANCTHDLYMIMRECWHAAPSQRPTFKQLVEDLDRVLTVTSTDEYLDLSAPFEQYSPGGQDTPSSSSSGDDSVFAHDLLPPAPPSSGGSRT
MERTK, sequence (Q12866 whole entry, looked up): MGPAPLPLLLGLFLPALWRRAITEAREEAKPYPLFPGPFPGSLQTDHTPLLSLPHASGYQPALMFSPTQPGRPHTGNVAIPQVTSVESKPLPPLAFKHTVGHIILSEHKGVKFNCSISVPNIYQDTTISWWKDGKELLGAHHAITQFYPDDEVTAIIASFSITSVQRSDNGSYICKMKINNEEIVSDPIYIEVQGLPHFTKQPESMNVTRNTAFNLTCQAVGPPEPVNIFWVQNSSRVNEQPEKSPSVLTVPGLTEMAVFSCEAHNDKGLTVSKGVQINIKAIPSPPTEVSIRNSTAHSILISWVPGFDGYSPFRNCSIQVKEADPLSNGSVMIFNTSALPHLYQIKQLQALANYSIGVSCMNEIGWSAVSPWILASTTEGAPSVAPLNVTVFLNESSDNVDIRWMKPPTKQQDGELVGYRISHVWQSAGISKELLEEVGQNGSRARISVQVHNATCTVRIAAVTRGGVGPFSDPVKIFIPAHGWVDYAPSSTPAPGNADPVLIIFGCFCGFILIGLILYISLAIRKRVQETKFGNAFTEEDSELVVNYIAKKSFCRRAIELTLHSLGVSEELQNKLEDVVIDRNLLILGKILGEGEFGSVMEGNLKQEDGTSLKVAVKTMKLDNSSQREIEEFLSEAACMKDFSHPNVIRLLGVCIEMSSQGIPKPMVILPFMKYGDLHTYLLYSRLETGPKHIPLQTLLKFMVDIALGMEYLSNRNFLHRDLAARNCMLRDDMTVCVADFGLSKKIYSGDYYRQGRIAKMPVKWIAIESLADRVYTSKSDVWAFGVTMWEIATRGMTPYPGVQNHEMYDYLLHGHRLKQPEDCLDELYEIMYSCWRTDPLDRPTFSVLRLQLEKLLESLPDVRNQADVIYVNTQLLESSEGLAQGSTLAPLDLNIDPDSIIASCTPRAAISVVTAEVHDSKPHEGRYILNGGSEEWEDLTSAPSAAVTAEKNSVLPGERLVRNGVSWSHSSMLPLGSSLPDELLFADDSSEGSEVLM
FGFR1, sequence (P11362 whole entry, looked up): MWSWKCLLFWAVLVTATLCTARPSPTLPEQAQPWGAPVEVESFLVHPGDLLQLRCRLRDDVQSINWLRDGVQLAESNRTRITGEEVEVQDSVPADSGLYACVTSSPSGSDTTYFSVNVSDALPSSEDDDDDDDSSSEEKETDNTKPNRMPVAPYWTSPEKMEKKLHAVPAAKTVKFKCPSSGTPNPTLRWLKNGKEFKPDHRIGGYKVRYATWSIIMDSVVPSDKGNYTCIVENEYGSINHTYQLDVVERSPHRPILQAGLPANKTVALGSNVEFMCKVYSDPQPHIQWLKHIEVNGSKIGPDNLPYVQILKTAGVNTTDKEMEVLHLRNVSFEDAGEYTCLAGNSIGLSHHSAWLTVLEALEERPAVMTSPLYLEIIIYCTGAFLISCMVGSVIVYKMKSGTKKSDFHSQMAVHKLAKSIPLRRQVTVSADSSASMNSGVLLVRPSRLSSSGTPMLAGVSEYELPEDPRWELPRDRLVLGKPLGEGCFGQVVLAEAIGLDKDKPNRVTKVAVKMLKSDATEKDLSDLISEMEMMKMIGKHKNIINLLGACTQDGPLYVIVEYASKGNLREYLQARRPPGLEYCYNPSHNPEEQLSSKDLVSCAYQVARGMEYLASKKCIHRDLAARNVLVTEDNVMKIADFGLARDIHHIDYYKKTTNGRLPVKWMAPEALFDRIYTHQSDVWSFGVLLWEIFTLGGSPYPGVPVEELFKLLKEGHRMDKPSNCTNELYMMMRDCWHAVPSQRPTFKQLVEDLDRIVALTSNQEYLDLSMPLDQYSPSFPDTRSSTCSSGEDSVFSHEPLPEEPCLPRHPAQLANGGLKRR
Jak2, sequence (O60674 whole entry, looked up): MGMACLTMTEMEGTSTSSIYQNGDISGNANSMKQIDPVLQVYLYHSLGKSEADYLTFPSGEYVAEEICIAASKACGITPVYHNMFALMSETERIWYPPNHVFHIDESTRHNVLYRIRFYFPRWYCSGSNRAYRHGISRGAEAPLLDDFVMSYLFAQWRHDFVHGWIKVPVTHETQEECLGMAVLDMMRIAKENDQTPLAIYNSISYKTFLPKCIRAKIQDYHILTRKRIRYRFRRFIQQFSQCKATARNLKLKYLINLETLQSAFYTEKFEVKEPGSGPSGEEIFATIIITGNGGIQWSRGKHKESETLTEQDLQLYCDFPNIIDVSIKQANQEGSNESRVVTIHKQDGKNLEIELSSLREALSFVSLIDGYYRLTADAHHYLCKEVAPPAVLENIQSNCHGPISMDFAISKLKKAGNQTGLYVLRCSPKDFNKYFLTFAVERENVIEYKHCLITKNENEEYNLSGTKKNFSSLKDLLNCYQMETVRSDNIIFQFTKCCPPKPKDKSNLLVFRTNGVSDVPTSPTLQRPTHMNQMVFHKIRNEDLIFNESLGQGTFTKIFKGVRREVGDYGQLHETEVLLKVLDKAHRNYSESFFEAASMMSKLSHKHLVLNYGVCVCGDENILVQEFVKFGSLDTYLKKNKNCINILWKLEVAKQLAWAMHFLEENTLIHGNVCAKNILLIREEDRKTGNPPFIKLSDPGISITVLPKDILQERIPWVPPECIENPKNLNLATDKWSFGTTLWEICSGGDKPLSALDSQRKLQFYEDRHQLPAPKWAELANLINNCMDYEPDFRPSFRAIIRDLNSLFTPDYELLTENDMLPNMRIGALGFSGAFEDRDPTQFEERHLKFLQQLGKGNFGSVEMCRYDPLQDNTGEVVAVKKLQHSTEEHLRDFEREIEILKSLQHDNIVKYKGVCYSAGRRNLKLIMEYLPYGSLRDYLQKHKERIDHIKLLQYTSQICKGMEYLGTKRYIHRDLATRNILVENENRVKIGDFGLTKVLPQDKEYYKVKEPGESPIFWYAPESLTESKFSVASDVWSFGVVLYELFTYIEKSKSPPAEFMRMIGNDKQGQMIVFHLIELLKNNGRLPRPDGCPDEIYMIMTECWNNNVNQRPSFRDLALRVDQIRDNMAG
Fyn, sequence (P06241 whole entry, looked up): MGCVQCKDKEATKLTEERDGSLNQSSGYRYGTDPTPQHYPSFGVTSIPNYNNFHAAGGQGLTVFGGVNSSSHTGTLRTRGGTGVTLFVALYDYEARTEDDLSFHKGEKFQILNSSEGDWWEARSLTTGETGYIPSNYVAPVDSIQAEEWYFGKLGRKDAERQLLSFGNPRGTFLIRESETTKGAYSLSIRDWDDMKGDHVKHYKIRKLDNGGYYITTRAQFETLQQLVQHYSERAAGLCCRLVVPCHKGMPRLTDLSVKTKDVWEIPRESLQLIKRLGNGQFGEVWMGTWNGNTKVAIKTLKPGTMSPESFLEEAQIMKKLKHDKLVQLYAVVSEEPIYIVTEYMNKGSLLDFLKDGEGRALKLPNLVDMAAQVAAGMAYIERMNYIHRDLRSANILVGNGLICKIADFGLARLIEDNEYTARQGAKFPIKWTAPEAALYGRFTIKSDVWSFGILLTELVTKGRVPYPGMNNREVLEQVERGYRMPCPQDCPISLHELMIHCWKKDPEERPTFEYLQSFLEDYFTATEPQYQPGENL

| Sequence | SH2 binding enrichment [14] | SH2 binding enrichment [15] | SH2 binding enrichment [16] | phosphorylation enrichment [1] | phosphorylation enrichment [2] | phosphorylation enrichment [3] | phosphorylation enrichment [4] | phosphorylation enrichment [5] | phosphorylation enrichment [6] | phosphorylation enrichment [7] | phosphorylation enrichment [8] | phosphorylation enrichment [9] | phosphorylation enrichment [10] | phosphorylation enrichment [11] | phosphorylation enrichment [12] | phosphorylation enrichment [13] |
| --- | --- | --- | --- | --- | --- | --- | --- | --- | --- | --- | --- | --- | --- | --- | --- | --- |
| AAPAAHDAADT [GAMT_Y27_Y27H] | 0.8 | 0.478 | 1 | 0.602 | 0.418 | 0.387 | 0.665 | 0.45 | 0.531 | 0.618 | 0.45 | 0.452 | 0.48 | 0.403 | 0.749 | 0.32 |
| AARVSYWLASG [DCHS1_Y1582_R1583W] | 0.733 | 0.527 | 1.17 | 0.732 | 0.634 | 0.613 | 1.17 | 0.573 | 0.825 | 1.18 | 0.443 | 0.781 | 0.617 | 0.622 | 0.555 | 0.364 |
| AAVDTVCRHNF [HLA-DRB1_Y107_Y107V_YF] | 0.479 | 0.529 | 0.888 | 0.577 | 0.54 | 0.521 | 1.29 | 0.398 | 1.15 | 0.765 | 0.488 | 0.533 | 0.937 | 0.499 | 0.429 | 0.491 |
| AAYNRYDQERF [CDC73_Y293] | 0.585 | 0.497 | 0.737 | 0.463 | 0.433 | 0.401 | 0.752 | 0.457 | 0.646 | 0.681 | 0.518 | 0.538 | 0.512 | 0.521 | 0.447 | 0.468 |
| AEPHTYEEPGR [EPHA8_Y616] | 0.862 | 6.34 | 0.882 | 0.476 | 0.433 | 0.511 | 0.824 | 0.489 | 0.749 | 1.08 | 0.501 | 0.581 | 0.675 | 0.506 | 0.485 | 0.439 |
| AEPTGYSAELS [EZR_Y499] | 0.525 | 0.457 | 0.721 | 0.583 | 0.535 | 0.513 | 1.01 | 0.524 | 1.08 | 1.03 | 0.485 | 0.636 | 0.799 | 0.528 | 0.616 | 0.488 |
| AESPEYVHMFT [FAM111A_Y511_YF] | 0.564 | 0.528 | 0.878 | 0.598 | 0.542 | 0.579 | 1.12 | 0.502 | 1.11 | 1.32 | 0.407 | 1.58 | 0.703 | 1.69 | 0.629 | 0.443 |
| AEVDTYCRHNY [HLA-DRB1_Y107_A103E] | 0.838 | 0.699 | 0.939 | 0.559 | 0.442 | 0.428 | 0.98 | 0.394 | 0.682 | 0.771 | 0.391 | 0.559 | 0.554 | 0.461 | 0.505 | 0.537 |
| AFAEVYEGQVS [ALK_Y1131_G1128A] | 0.769 | 0.506 | 0.888 | 0.504 | 0.518 | 0.559 | 0.974 | 0.563 | 1.09 | 1.07 | 0.484 | 0.695 | 0.868 | 0.414 | 0.796 | 1.21 |

Second part, led by results:

| SH2 binding enrichment [14] | SH2 binding enrichment [15] | SH2 binding enrichment [16] | Sequence | phosphorylation enrichment [1] | phosphorylation enrichment [2] | phosphorylation enrichment [3] | phosphorylation enrichment [4] | phosphorylation enrichment [5] | phosphorylation enrichment [6] | phosphorylation enrichment [7] | phosphorylation enrichment [8] | phosphorylation enrichment [9] | phosphorylation enrichment [10] | phosphorylation enrichment [11] | phosphorylation enrichment [12] | phosphorylation enrichment [13] |
| --- | --- | --- | --- | --- | --- | --- | --- | --- | --- | --- | --- | --- | --- | --- | --- | --- |
| 0.808 | 0.574 | 0.751 | ACRSLYGGFVE [MVD_Y164] | 0.642 | 0.605 | 0.568 | 1.04 | 11.2 | 0.698 | 1.11 | 0.621 | 0.727 | 0.511 | 0.625 | 7.94 | 7.11 |
| 0.681 | 0.511 | 0.949 | ADLLVYIKALN [HPRT1_Y81_D80V] | 0.628 | 0.511 | 0.644 | 1.48 | 0.455 | 1.23 | 1.11 | 0.349 | 0.935 | 0.939 | 0.512 | 0.657 | 0.471 |
| 0.723 | 0.556 | 0.993 | ADNSAYLMGLN [MYH7_Y386_K383N] | 0.566 | 0.497 | 0.629 | 0.932 | 0.514 | 1.11 | 0.865 | 0.473 | 0.61 | 0.738 | 0.512 | 0.603 | 0.587 |
| 0.299 | 0.403 | 0.748 | ADRNHYRRYPR [YBX1_Y145] | 0.425 | 0.46 | 0.424 | 0.644 | 0.544 | 0.585 | 0.613 | 0.48 | 0.465 | 0.717 | 0.527 | 0.55 | 0.515 |
| 0.69 | 0.483 | 0.774 | AEEEIYGEFEA [Src_opt_1995] | 0.75 | 0.923 | 0.808 | 1.49 | 1.26 | 1.29 | 1.51 | 0.58 | 1 | 0.97 | 0.694 | 1.12 | 1.14 |
| 1.65 | 1.24 | 1.76 | AERKLYRNVML [ZNF569_Y33_Q29E] | 0.408 | 0.359 | 0.365 | 0.519 | 0.337 | 0.653 | 0.45 | 0.383 | 0.407 | 0.453 | 0.367 | 0.319 | 0.312 |
| 0.65 | 0.506 | 0.767 | AFPVSYSSSGA [RET_Y687] | 0.314 | 0.392 | 0.455 | 0.541 | 0.344 | 0.52 | 0.511 | 0.454 | 0.406 | 0.53 | 0.407 | 0.303 | 0.477 |
